Results as given in patent US20240294570A1 (BRANDEIS UNIVERSITY, published 2024).
Each block holds one binder with its values, some of them ahead of it. Non-standard residues stand in square brackets, D forms with d. No end group written: not given here. *: point of attachment. pY = N[C@@H](Cc1ccc(OP(=O)(O)O)cc1)C(=O)O; NBD = O=[N+]([O-])c1ccc(*)c2nonc12; βAla = NCCC(=O)O

Target: Alkaline phosphatase (Biomatik, Cat. No. A1130)
Assay: cell-based or functional assay

- half-life of 5 (400 µM) with 0.1 U/mL ALP: 122 min
- half-life of 5 at 100 µM with 0.5 U/mL ALP (LC-MS): 27.3 min
- half-life of 5 at 200 µM with 0.5 U/mL ALP (LC-MS): 21.6 min
- half-life of 5 at 400 µM with 0.5 U/mL ALP (LC-MS): 30.6 min
B1: L-phosphopentapeptide 5, NBD-βA-LLLLpY (peptide)
peptide: {NBD}-[βAla]LLLL[pY]

- half-life of 9 at 100 µM with 0.5 U/mL ALP: 24.6 min
- half-life of 9 at 200 µM with 0.5 U/mL ALP: 21.6 min
- half-life of 9 at 400 µM with 0.5 U/mL ALP: 27 min
B2: phosphopentapeptide 9, NBD-βA-llllpY (peptide)
peptide: {NBD-βAla}-[dL][dL][dL][dL][pY]

- half-life of 7 at 100 µM with 0.5 U/mL ALP: 127 min
- half-life of 7 at 200 µM with 0.5 U/mL ALP: 112 min
- half-life of 7 at 400 µM with 0.5 U/mL ALP: 126 min
B3: phosphopentapeptide 7, NBD-βA-LLpYLL (peptide)
peptide: {NBD}-[βAla]LL[pY]LL
